Source: US20100144634A1 (published 2010)

Tests used:
[1] = target: T1, murine vWF (murine, UniProt Q8CIZ8 764-2813, limits assumed); test: microtiter binding assay, immobilised murine vWF
T1 construct: also called immobilized murine vWF

[2] = target: T2, von Willebrand factor (VWF), purified plasma-derived, multimeric, native (UniProt P04275 764-2813); test: pull-down on VWF-Affi-gel 10, western blot with anti-V5 (FIG. 5B); the microtiter result is given with a literature citation
T2 construct: mature; human is implied; also called pvWF; plasma VWF
Experimental: FIG. 5. Binding of ADAMTS13 (or variants) to VWF immobilized on solid surfaces. A. Binding of ADAMTS13 and variants to VWF immobilized on a microtiter plate: FL-A13, delCUB and MDTCS (0-200 nM) were incubated without (control) or with VWF (10 μg/ml, 100 μl/well) immobilized on a microtiter plate for 1 h. The bound ADAMTS13 and variants were determined by mouse anti-V5 IgG, followed by rabbit anti-mouse IgG, peroxidase-conjugated and OPD-H₂O₂. The KD (S) was determined by fitting the data into non-linear regression. B. Binding of ADAMTS13 and variants to immobilized VWF on Affi-gel 10: FL-A13, delCUB, MDTCS and metalloprotease domain (M) (˜50 nM) were incubated at 37° C. for 1 h without (−) or with (+) VWF covalently immobilized onto the Affi-gel 10. After extensive washing with TBS and 20 mM Tris-HCl, pH 7.5, […], the bound ADAMTS13 and variants were eluted from the beads with SDS-gel sample buffer and determined by Western blot with anti-V5. The amount of input FL-A13, delCUB, and MDTCS is the same with the signal of only FL-A13 shown in lane 1 (IN).
The binding of ADAMTS13 to immobilized Affi-gel 10 was also described previously²². […] The bound FL-A13 and variants were eluted from the beads by boiling them at 100° C. for 10 min and detected by Western blotting with anti-V5 IgG as described previously^{22;24;29}.

T1 sequence (Q8CIZ8 764-2813 limits assumed): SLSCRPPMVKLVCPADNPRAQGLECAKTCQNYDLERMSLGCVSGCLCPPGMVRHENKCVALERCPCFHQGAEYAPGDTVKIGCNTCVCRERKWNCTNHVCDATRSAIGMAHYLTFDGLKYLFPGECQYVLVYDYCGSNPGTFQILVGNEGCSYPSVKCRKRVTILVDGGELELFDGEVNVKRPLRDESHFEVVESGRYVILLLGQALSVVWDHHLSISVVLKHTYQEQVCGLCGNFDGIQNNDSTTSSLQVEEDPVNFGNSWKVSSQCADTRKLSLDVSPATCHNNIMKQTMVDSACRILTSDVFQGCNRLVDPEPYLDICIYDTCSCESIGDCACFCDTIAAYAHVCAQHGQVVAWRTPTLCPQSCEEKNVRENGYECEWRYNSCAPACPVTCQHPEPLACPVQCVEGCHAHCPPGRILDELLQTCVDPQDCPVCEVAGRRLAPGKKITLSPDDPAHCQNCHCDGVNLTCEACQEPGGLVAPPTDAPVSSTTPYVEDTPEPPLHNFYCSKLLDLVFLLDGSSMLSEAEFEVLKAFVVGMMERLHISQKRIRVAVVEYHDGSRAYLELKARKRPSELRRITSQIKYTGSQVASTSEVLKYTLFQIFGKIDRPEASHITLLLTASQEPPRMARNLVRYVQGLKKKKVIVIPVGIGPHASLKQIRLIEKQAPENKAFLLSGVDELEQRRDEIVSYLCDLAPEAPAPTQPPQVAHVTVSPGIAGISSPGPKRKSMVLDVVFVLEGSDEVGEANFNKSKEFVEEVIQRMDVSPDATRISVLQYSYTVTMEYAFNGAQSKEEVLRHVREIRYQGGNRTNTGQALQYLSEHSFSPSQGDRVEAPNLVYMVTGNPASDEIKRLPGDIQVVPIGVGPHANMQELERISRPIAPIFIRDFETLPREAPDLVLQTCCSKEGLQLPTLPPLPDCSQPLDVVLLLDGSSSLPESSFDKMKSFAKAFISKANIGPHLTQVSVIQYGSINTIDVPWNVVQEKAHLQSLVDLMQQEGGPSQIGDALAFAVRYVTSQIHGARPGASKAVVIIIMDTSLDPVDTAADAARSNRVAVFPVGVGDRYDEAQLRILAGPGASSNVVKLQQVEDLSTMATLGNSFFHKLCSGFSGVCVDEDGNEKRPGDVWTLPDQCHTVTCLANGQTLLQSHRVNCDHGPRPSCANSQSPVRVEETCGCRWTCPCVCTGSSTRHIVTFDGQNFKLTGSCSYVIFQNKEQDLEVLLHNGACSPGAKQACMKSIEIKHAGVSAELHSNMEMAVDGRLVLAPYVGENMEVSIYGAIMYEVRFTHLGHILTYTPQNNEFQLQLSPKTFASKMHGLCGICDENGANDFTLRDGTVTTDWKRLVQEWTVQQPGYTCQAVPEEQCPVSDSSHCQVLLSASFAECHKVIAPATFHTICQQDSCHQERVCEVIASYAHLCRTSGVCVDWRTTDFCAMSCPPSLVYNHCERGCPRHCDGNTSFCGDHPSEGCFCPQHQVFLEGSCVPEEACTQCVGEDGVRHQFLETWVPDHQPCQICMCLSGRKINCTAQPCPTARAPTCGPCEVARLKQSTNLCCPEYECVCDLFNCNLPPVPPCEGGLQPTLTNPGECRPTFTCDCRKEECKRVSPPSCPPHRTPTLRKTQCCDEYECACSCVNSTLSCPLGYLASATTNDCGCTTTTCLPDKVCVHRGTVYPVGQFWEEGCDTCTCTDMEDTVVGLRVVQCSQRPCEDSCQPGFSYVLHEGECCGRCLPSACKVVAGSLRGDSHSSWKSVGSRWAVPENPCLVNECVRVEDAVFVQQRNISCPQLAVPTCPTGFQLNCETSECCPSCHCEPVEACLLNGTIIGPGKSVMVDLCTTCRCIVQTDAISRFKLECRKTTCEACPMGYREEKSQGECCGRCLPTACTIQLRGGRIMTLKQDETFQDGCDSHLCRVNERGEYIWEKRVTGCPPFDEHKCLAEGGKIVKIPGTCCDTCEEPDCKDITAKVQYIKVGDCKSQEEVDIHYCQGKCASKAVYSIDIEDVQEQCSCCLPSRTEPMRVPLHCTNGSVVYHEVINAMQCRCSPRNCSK

Row | Kd [1] [nM] | binding result [2] | Binder
1 | ~1.7 | – | canine FVIII-SQ (other, UniProt O18806 20-2343, looked up, also called canine B-domain deleted factor VIII) ATRKYYLGAVELSWDYMQSDLLSALHADTSFSSRVPGSLPLTTSVTYRKTVFVEFTDDLFNIAKPRPPWMGLLGPTIQAEVYDTVVIVLKNMASHPVSLHAVGVSYWKASEGAEYEDQTSQKEKEDDNVIPGESHTYVWQVLKENGPMASDPPCLTYSYFSHVDLVKDLNSGLIGALLVCKEGSLAKERTQTLQEFVLLFAVFDEGKSWHSETNASLTQAEAQHELHTINGYVNRSLPGLTVCHKRSVYWHVIGMGTTPEVHSIFLEGHTFLVRNHRQASLEISPITFLTAQTFLMDLGQFLLFCHIPSHQHDGMEAYVKVDSCPEEPQLRMKNNEDKDYDDGLYDSDMDVVSFDDDSSSPFIQIRSVAKKHPKTWVHYIAAEEEDWDYAPSGPTPNDRSHKNLYLNNGPQRIGKKYKKVRFVAYTDETFKTREAIQYESGILGPLLYGEVGDTLLIIFKNQASRPYNIYPHGINYVTPLHTGRLPKGVKHLKDMPILPGEIFKYKWTVTVEDGPTKSDPRCLTRYYSSFINLERDLASGLIGPLLICYKESVDQRGNQMMSDKRNVILFSVFDENRSWYLTENMQRFLPNADVVQPHDPEFQLSNIMHSINGYVFDNLQLSVCLHEVAYWYILSVGAQTDFLSVFFSGYTFKHKMVYEDTLTLFPFSGETVFMSMENPGLWVLGCHNSDFRNRGMTALLKVSSCNRNIDDYYEDTYEDIPTPLLNENNVIKPRSFSQNPPVSKHHQREITVTTLQPEEDKFEYDDTFSIEMKREDFDIYGDYENQGLRSFQKKTRHYFIAAVERLWDYGMSRSPHILRNRAQSGDVQQFKKVVFQEFTDGSFTQPLYRGELNEHLGLLGPYIRAEVEDNIVVTFKNQASRPYSFYSSLISYDEDEGQGAEPRRKFVNPNETKIYFWKVQHHMAPTKDEFDCKAWAYFSDVDLEKDVHSGLIGPLLICRSNTLNPAHGRQVTVQEFALVFTIFDETKSWYFTENLERNCRAPCNVQKEDPTLKENFRFHAINGYVKDTLPGLVMAQDQKVRWYLLSMGSNENIHSIHFSGHVFTVRKKEEYKMAVYNLYPGVFETVEMLPSQVGIWRIECLIGEHLQAGMSTLFLVYSKKCQTPLGMASGHIRDFQITASGQYGQWAPKLARLHYSGSINAWSTKDPFSWIKVDLLAPMIIHGIMTQGARQKFSSLYVSQFIIMYSLDGNKWHSYRGNSTGTLMVFFGNVDSSGIKHNIFNPPIIAQYIRLHPTHYSIRSTLRMELLGCDFNSCSMPLGMESKAISDAQITASSYLSSMLATWSPSQARLHLQGRTNAWRPQANNPKEWLQVDFRKTMKVTGITTQGVKSLLISMYVKEFLISSSQDGHNWTLFLQNGKVKVFQGNRDSSTPVRNRLEPPLVARYVRLHPQSWAHHIALRLEVLGCDTQQPA
2 | – | no binding | ADAMTS13 metalloprotease domain alone (enzyme, UniProt Q76LX8 75-289, looked up, domain: metalloprotease domain) AAGGILHLELLVAVGPDVFQAHQEDTERYVLTNLNIGAELLRDPSLGAQFRVHLVKMVILTEPEGAPNITANLTSSLLSVCGWSQTINPEDDTDPGHADLVLYITRFDLELPDGNRQVRGVTQLGGACSPTWSCLITEDTGFDLGVTIAHEIGHSFGLEHDGAPGSGCGPSGHVMASDGAAPRAGLAWSPCSRRQLLSLLSAGRARCVWDPPRPQ
